Experimental data taken from IntAct's records for PubMed 17595294.

B1: Glycine--tRNA ligase (Homo sapiens), P41250 (parent)
chain: MPSPRPVLLRGARAALLLLLPPRLLARPSLLLRRSLSAASCPPISLPAAASRSSMDGAGAEEVLAPLRLAVRQQGDLVRKLKEDKAPQVDVDKAVAELKARKRVLEAKELALQPKDDIVDRAKMEDTLKRRFFYDQAFAIYGGVSGLYDFGPVGCALKNNIIQTWRQHFIQEEQILEIDCTMLTPEPVLKTSGHVDKFADFMVKDVKNGECFRADHLLKAHLQKLMSDKKCSVEKKSEMESVLAQLDNYGQQELADLFVNYNVKSPITGNDLSPPVSFNLMFKTFIGPGGNMPGYLRPETAQGIFLNFKRLLEFNQGKLPFAAAQIGNSFRNEISPRSGLIRVREFTMAEIEHFVDPSEKDHPKFQNVADLHLYLYSAKAQVSGQSARKMRLGDAVEQGVINNTVLGYFIGRIYLYLTKVGISPDKLRFRQHMENEMAHYACDCWDAESKTSYGWIEIVGCADRSCYDLSCHARATKVPLVAEKPLKEPKTVNVVQFEPSKGAIGKAYKKDAKLVMEYLAICDECYITEMEMLLNEKGEFTIETEGKTFQLTKDMINVKRFQKTLYVEEVVPNVIEPSFGLGRIMYTVFEHTFHVREGDEQRTFFSFPAVVAPFKCSVLPLSQNQEFMPFVKELSEALTRHGVSHKVDDSSGSIGRRYARTDEIGVAFGVTIDFDTVNKTPHTATLRDRDSMRQIRAEISELPSIVQDLANGNITWADVEARYPLFEGQETGKKETIEE
partner: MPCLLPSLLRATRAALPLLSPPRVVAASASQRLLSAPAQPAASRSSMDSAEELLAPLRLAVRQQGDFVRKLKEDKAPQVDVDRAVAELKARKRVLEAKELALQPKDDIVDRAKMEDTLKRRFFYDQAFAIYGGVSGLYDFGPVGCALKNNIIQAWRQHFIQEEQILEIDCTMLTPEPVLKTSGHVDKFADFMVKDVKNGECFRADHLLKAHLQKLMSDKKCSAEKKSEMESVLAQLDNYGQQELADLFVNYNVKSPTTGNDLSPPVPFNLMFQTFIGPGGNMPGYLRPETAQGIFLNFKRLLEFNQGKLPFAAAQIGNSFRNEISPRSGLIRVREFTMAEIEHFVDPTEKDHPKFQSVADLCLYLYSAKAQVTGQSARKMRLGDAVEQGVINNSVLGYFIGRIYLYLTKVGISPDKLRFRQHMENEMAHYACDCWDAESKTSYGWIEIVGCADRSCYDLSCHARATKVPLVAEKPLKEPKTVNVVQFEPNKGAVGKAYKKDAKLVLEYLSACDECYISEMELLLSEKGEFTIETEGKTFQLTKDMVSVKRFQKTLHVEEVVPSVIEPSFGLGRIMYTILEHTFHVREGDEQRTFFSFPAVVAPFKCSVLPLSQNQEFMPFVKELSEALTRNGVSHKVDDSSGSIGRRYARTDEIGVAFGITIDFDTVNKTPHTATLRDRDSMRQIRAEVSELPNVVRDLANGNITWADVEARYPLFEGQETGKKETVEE

Variants of: B1
Conditions: with gars_mouse Gars1, Q9CZD3

| effect of a mutation on the interaction | Variant |
| --- | --- |
| disrupting interaction strength | L183P |
| increasing interaction strength | S644L |
| increasing interaction strength | G580R |
| disrupting interaction strength | G294R |
| increasing interaction strength | D554N |
